Experimental data reported in US20240116984A1 (published 2024).
Starred links: 1 amine or outer side, 2 acyl side, 3 side chain; linkers in the order of their positions; H or OH if unused. Non-standard residues stand in square brackets, D forms with d. Primed or numbered codes have the meaning given here. aTyr = Tyr with backbone N-amino (N-aminated amide nitrogen), NN([C@@H](Cc1ccc(O[*:3])cc1)C(=O)[*:2])[*:1]; aIle′ = Ile with backbone N-amino (N-aminated amide nitrogen), CC[C@H](C)[C@@H](C(=O)[*:2])N(N)[*:1]; aVal = Val with backbone N-amino (N-aminated amide nitrogen), CC(C)[C@@H](C(=O)[*:2])N(N)[*:1]; N(NH2)Lys = NCCCC[C@H](NN)C(=O)O

Biological target: Human tauP301L (0N4R), recombinant, N-terminal His tag (UniProt P10636 2-758)
Assay: capping of pre-formed Tau P301L fibers, inhibition of seeding in HEK293 tau-RD-YFP cells

Sequence of Human tauP301L (0N4R), recombinant, N-terminal His tag (P10636 other isoform, or with tags, fused parts or gaps): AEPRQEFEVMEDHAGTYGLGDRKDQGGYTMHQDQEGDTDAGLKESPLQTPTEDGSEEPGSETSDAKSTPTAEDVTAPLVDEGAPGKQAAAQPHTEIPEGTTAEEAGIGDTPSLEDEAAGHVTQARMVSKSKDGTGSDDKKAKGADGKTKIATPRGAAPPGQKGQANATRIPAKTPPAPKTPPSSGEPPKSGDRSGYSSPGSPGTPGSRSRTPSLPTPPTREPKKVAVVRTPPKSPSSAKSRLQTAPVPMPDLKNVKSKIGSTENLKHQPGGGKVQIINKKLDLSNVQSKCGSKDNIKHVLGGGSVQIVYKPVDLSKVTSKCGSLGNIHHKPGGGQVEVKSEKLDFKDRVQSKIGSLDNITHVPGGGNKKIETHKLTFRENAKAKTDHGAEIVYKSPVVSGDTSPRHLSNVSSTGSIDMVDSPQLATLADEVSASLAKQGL

IC50	Binder
4.7 µM	Ac-VQI[aVal]Y[N(NH2)Lys]-NH2 (SMILES CC[C@H](C)[C@H](NC(=O)[C@H](CCC(N)=O)NC(=O)[C@@H](NC(C)=O)C(C)C)C(=O)N(N)[C@H](C(=O)N[C@@H](Cc1ccc(O)cc1)C(=O)N(N)[C@@H](CCCCN)C(N)=O)C(C)C) [Compound 13, Ac-Val-Gln-Ile-aVal-Tyr-aLys-NH2]
> 20 µM	Ac-[aVal]Q[aIle′]INK-NH2 (SMILES CC[C@H](C)[C@H](NC(=O)[C@H]([C@@H](C)CC)N(N)C(=O)[C@H](CCC(N)=O)NC(=O)[C@H](C(C)C)N(N)C(C)=O)C(=O)N[C@@H](CC(N)=O)C(=O)N[C@@H](CCCCN)C(N)=O) [Compound 4, Ac-aVal-Gln-aIle-Ile-Asn-Lys-NH2]
4.8 µM	Ac-VQ[aIle′]V[aTyr]K-NH2 (SMILES CC[C@H](C)[C@@H](C(=O)N[C@H](C(=O)N(N)[C@@H](Cc1ccc(O)cc1)C(=O)N[C@@H](CCCCN)C(N)=O)C(C)C)N(N)C(=O)[C@H](CCC(N)=O)NC(=O)[C@@H](NC(C)=O)C(C)C) [Compound 12, Ac-Val-Gln-aIle-Val-aTyr-Lys-NH2]
